IntAct's records for PubMed 22382979

B1: ATP-dependent DNA helicase SRS2 (Saccharomyces cerevisiae), P12954 (parent)
chain: MSSNNDLWLHLVSQLNTQQRAAALFDYTRGLQVIAGPGTGKTKVLTSRVAYLILHHHIHPRDIIVTTFTNKAANEMKERLQEMLRGAGVNISELLIGTFHSICLKILYRFGHLVDLQKDWRIIDEKEIDVILDDMIEKVPDQIRDYASSITRKVNLCMPSKNGDEWTIHPKLIKKQISKLKSNAILPEEYILDSNHDAALGYFYQIYQSELSKKNTLDFDDLLMYTFRLLTRVRVLSNIKHVLVDEFQDTNGIQLDLMFLFAKGNHHLSRGMTIVGDPDQSIYAFRNALAHNFLEMGRKCPIEYSTIILVENYRSSQKILNTSEILITQQNKGRQNRAPLRAQFDLDFPPVYMNFPAYFLEAPSLVRELLYLKALPNLFTFNDFAILVRQRRQIKRIESALIEHRIPYKIIRGHSFWDSKETRAMLNLLKLIFSPNDKHAILASLLYPARGLGPATGEKIKNALDTLATDVSCFQILKDISSKKIMLDIPTKGRSVIADFISMIENCQLLLQSTLLGGLSDLFDKLYELSGLKYEYLYKDGKKKNDQLEKSEPNLLNARHKNIELLKNYFLALLSKSESSDKEKNEAIKAATDEAEPIENKVITPKEYLRNFFNSLSLHSDAAEEEESESNKDAKIKREKNGFVTISTIHGAKGLEWPVVFIPGCEEGIIPCVFNDDKKDESEEDEEEDQENSKKDASPKKTRVLSVEDSIDEERRMFFVAQTRAKYLLYLSNTVTVEDVDRPRIASRFLTTDLIKAMSDSQKLFESTNSIKKLYRILNKKPPAEDDKLFSLDQLRKDYNQFIENRRERMIWQGIQMNDVYGIQLSRNKLLGSVSDFTSAADQLRLETQNSIFPQKKLIEKSRPSKINGNYAPKSRVKSPEKRYAPETTSFHSPTKKKVYAPQYVSTTNVPSRQEFHSSTGKNIPFLRREDRSITDISPRSSTRSLKGASPNKTSHMSDDLMRPSPTRKDKVTRNIHFATAGTFRIETQSNVDELHPPEYSNKSGQSLTSSEFSGFSSACSNSDQPTNLIEDINNELDLSDEELLNDISIERRRELLGSKKTKKIKPKTRNRKSKRGDKVKVEEVIDLKSEFEEDDSRNTTAAELLHNPDDTTVDNRPIISNAKFLADAAMKKTQKFSKKVKNEPASSQMDIFSQLSRAKKKSKLNNGEIIVID
B2: Proliferating cell nuclear antigen (Saccharomyces cerevisiae), P15873 (parent)
chain: MLEAKFEEASLFKRIIDGFKDCVQLVNFQCKEDGIIAQAVDDSRVLLVSLEIGVEAFQEYRCDHPVTLGMDLTSLSKILRCGNNTDTLTLIADNTPDSIILLFEDTKKDRIAEYSLKLMDIDADFLKIEELQYDSTLSLPSSEFSKIVRDLSQLSDSINIMITKETIKFVADGDIGSGSVIIKPFVDMEHPETSIKLEMDQPVDLTFGAKYLLDIIKGSSLSDRVGIRLSSEAPALFQFDLKSGFLQFFLAPKFNDEE
partner: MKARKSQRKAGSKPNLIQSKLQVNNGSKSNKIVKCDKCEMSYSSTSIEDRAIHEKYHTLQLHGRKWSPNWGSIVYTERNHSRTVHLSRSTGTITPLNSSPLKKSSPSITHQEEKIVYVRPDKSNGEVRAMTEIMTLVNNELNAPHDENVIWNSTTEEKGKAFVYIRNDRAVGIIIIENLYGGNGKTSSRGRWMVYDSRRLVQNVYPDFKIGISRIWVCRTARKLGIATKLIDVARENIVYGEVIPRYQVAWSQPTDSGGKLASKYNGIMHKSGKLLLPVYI
B3: Proliferating cell nuclear antigen (Saccharomyces cerevisiae), P15873 (parent)
chain: B2 chain

Variants of: B1
Conditions: with pcna_yeast POL30, P15873

Variant | effect of a mutation on the interaction
L1156A | decreasing interaction
D1151A | decreasing interaction
Q1149E;I1152A | decreasing interaction
Q1149E | decreasing interaction
I1152A | decreasing interaction
F1153A | decreasing interaction
I1152A;L1156A | decreasing interaction
Q1155E | decreasing interaction

Variants of: B1
Conditions: with smt3_yeast SMT3, Q12306
smt3_yeast SMT3, Q12306, sequence (Q12306 whole entry): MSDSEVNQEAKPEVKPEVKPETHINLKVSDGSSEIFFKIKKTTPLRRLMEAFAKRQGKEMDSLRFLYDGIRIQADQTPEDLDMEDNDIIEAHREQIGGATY

Variant | effect of a mutation on the interaction
L1156A | decreasing interaction
Q1149E;I1152A | decreasing interaction
I1152A | decreasing interaction
I1152A;L1156A | decreasing interaction

Variants of: B2
Conditions: with eco1_yeast ECO1, P43605

Variant | effect of a mutation on the interaction
F125A;L126A;K127A;I128A | decreasing interaction

Variants of: B3
Conditions: with srs2_yeast SRS2, P12954

Variant | effect of a mutation on the interaction
F125A;L126A;K127A;I128A | decreasing interaction
